Reference: US12221480

B1: δ3-23 (antibody, V domains shown)
VH: EVQLQQSGAELVKPGASVKLSCTASGFNIRDTYMHWVKQRPEQGLEWIGRIDPANGNTKYDPKFRGKATITADTSSNTAYLQLSSLTSEGTAVYYCSEGIYFDYWGQGTTLTVSS
VL: DILLTQSPAILSVSPGERVSFSCRASQNIGTIIHWYQQRANGSPRLLIKYASESISGIPSRFSGSGSGTDFTLSINSVESEDIADYYCQQSNSWPYTFGGGTKLEIKR
B2: δ3-42 (antibody, V domains shown)
VH: DVQLQESGPDLVKPSQSLSLTCTVTGYSITSGYNWHWIRQFPGNKLEWMGYIHYSGNTDYNPSLRSRISITRDTSKNQFFLHLNSVPTEDTATYYCARSGITTDWYFDVWGAGTTVTVSS
VL: QIVLSQSPAILSASPGEKVTMTCRASSSVNYMHWYQQKPGSSPKPWIYATSNLASGVPARFSGSGSGTSYSLTISKVEAEDAATYYCQQWSSHQPTFGAGTKLELK
B3: δ3-58 (antibody, V domains shown)
VH: EVKLVESGGGLVQPGGSLKLSCAASGFTFSSYAMSWVRQTPEKRLEWVAYIRDGGGGTYYPDTVEGRFTISRDNAKNTLYLQMSSLKSEDTAMYYCARHPPMNDWFLYWGQGTLVTVSA
VL: DIQMTQSPASLSVSVGETVTITCRASENIYSHLAWYQQKQGKSPQLLVYAATNLADGVPSRFSGSGSGTQYSLKINSLQSEDFGSYYCQHFWGTPYTFGGGTKLEIKR
B4: δ3-08 (antibody, V domains shown)
VH: EEKLEESGGGLVQPGGSMKLSCVASGFIFSIYWMNWVRQSPEKGLEWVGQIRLKSDNYATHYAESVKGRFTISRDDSKSSVYLQMNNLRAEDTGIYYCMYYGSSYERFAYWGQGTLVTVSA
VL: DIQMIQSPASLSVSVGETVTITCRASENIYSNLAWYQQKQGKSPQLLVYVATKLADGVPSRFSGSGSGTQYSLKINSLQSEDFGSYYCQHFWGTPPWTFGGGTKLEIK

How the values were obtained:
[1] = biological target: anti-CD20 (Rituxan) chimeric antigen receptor ACT2; experiment: flow cytometry, panel Donor 3 (δ3-23): cells transduced with the anti-CD20 CAR ACT2, stained with rat anti-Rituximab-FITC; no % sign is printed
[2] = biological target: anti-CD20 (Rituxan) chimeric antigen receptor ACT2; experiment: flow cytometry, panel Donor 4 (δ3-08): cells transduced with the anti-CD20 CAR ACT2, stained with rat anti-Rituximab-FITC; no % sign is printed
[3] = biological target: anti-CD20 (Rituxan) chimeric antigen receptor ACT2; experiment: flow cytometry, panel Donor 4 (δ3-23): cells transduced with the anti-CD20 CAR ACT2, stained with rat anti-Rituximab-FITC; no % sign is printed
[4] = biological target: Vδ3 γδ TCR on the surface of human Vδ3 γδ T cells (PBMC-derived, expanded cultures) (human) (UniProt A0JD37); experiment: cell-based or functional assay
Chain of UniProt A0JD37 (A0JD37 19-113, stated change not applied): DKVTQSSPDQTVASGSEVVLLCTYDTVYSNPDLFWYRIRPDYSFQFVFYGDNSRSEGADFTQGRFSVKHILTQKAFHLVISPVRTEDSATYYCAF

[5] = biological target: Vδ3 γδ TCR on the surface of human Vδ3 γδ T cells (PBMC-derived, expanded cultures) (human) (UniProt A0JD37); experiment: flow cytometry on expanded, αβ T cell depleted γδ T cells of Donor 4
[6] = biological target: recombinant human soluble γ2 δ3TCR-FC (wild type) (human) (UniProt B7Z8K6); experiment: Luminex beads; TCR-hFc captured by goat anti-human Fc; antibody titrated
[7] = biological target: γ2δ3 TCR-hFc mutant S1 (D10N in the Vδ3 chain) (human) (UniProt B7Z8K6); experiment: as above
[8] = biological target: γ2δ3 TCR-hFc mutant S2 (D26N, K85L in the Vδ3 chain) (human) (UniProt B7Z8K6); experiment: as above
[9] = biological target: γ2δ3 TCR-hFc mutant S4 (E18Q in the Vδ3 chain) (human) (UniProt B7Z8K6); experiment: as above
[10] = biological target: γ2δ3 TCR-hFc mutant S5 (D70N, E67Q in the Vδ3 chain) (human) (UniProt B7Z8K6); experiment: as above
[11] = biological target: γ2δ3 TCR-hFc mutant S6 (R75Q, R95Q in the Vδ3 chain) (human) (UniProt B7Z8K6); experiment: as above
[12] = biological target: γ2δ3 TCR-hFc mutant S7 (D57N, R65Q in the Vδ3 chain) (human) (UniProt B7Z8K6); experiment: as above
[13] = biological target: γ2δ3 TCR-hFc mutant S9 (E67Q, D70N, R75Q, R95Q, E97Q in the Vδ3 chain) (human) (UniProt B7Z8K6); experiment: as above
[14] = biological target: γ2δ3 TCR-hFc mutant S10 (K3A, K79L, H88T in the Vδ3 chain) (human) (UniProt B7Z8K6); experiment: Luminex beads; TCR-hFc captured by goat anti-human Fc; antibody titrated; extrapolated value, no saturation achieved
[15] = biological target: γ2δ3 TCR-hFc mutant S11 (K79L, L82K, H88F in the Vδ3 chain) (human) (UniProt B7Z8K6); experiment: as above
[16] = biological target: γ2δ3 TCR-hFc mutant S3 (K79L, H88F in the Vδ3 chain) (human) (UniProt B7Z8K6); experiment: as above
[17] = biological target: γ2δ3 TCR-hFc mutant S8 (K79L, E18Q, H88F in the Vδ3 chain) (human) (UniProt B7Z8K6); experiment: as above
[18] = biological target: recombinant human soluble γ2 δ3TCR-FC (wild type) (human) (UniProt B7Z8K6); experiment: Octet, γ2δ3TCR-hFc captured on anti-human Fc biosensor; row antibody δ3-08 taken as first (saturating), column antibody as second; 5 µg/mL each
[19] = biological target: recombinant human soluble γ2 δ3TCR-FC (wild type) (human) (UniProt B7Z8K6); experiment: Octet, γ2δ3TCR-hFc captured on anti-human Fc biosensor; row antibody δ3-31 taken as first (saturating), column antibody as second; 5 µg/mL each
[20] = biological target: recombinant human soluble γ2 δ3TCR-FC (wild type) (human) (UniProt B7Z8K6); experiment: Octet, γ2δ3TCR-hFc captured on anti-human Fc biosensor; row antibody δ3-42 taken as first (saturating), column antibody as second; 5 µg/mL each
[21] = biological target: recombinant human soluble γ2 δ3TCR-FC (wild type) (human) (UniProt B7Z8K6); experiment: Octet, γ2δ3TCR-hFc captured on anti-human Fc biosensor; row antibody δ3-58 taken as first (saturating), column antibody as second; 5 µg/mL each
[22] = biological target: recombinant human soluble γ2 δ3TCR-FC (wild type) (human) (UniProt B7Z8K6); experiment: Octet, γ2δ3TCR-hFc captured on anti-human Fc biosensor; row antibody δ3-23 taken as first (saturating), column antibody as second; 5 µg/mL each; self pair
[23] = biological target: Vδ3 γδ TCR on the surface of human Vδ3 γδ T cells (PBMC-derived, expanded cultures) (human) (UniProt A0JD37); experiment: flow cytometry, lower right panel (δ3-23 Expansion): untransduced Donor 4 cells after αβ T cell depletion, δ3-23 MAb staining (x axis) against anti-TCRαβ (y axis); the gated population lies between about 10^4 and 10^5 on the δ3-23 axis; no % sign is printed
[24] = biological target: Vδ3 γδ TCR on the surface of human Vδ3 γδ T cells (PBMC-derived, expanded cultures) (human) (UniProt A0JD37); experiment: flow cytometry, upper right panel (δ3-08 Expansion): untransduced Donor 4 cells after αβ T cell depletion, δ3-23 MAb staining (x axis) against anti-TCRαβ (y axis); the gated population lies between about 10^4 and 10^5 on the δ3-23 axis; no % sign is printed
[25] = biological target: γ2δ3 TCR-hFc mutant S9 (E67Q, D70N, R75Q, R95Q, E97Q in the Vδ3 chain) (human) (UniProt B7Z8K6); experiment: Luminex beads; TCR-hFc captured by goat anti-human Fc; antibody titrated; extrapolated value, no saturation achieved
[26] = biological target: recombinant human soluble γ2 δ3TCR-FC (wild type) (human) (UniProt B7Z8K6); experiment: Octet, γ2δ3TCR-hFc captured on anti-human Fc biosensor; row antibody δ3-23 taken as first (saturating), column antibody as second; 5 µg/mL each
[27] = biological target: recombinant human soluble γ2 δ3TCR-FC (wild type) (human) (UniProt B7Z8K6); experiment: Octet, γ2δ3TCR-hFc captured on anti-human Fc biosensor; row antibody δ3-42 taken as first (saturating), column antibody as second; 5 µg/mL each; self pair
[28] = biological target: recombinant human soluble γ2 δ3TCR-FC (wild type) (human) (UniProt B7Z8K6); experiment: Octet, γ2δ3TCR-hFc captured on anti-human Fc biosensor; row antibody δ3-58 taken as first (saturating), column antibody as second; 5 µg/mL each; self pair
[29] = biological target: γ2δ3 TCR-hFc mutant S10 (K3A, K79L, H88T in the Vδ3 chain) (human) (UniProt B7Z8K6); experiment: Luminex beads; TCR-hFc captured by goat anti-human Fc; antibody titrated
[30] = biological target: γ2δ3 TCR-hFc mutant S11 (K79L, L82K, H88F in the Vδ3 chain) (human) (UniProt B7Z8K6); experiment: as above
[31] = biological target: γ2δ3 TCR-hFc mutant S3 (K79L, H88F in the Vδ3 chain) (human) (UniProt B7Z8K6); experiment: as above
[32] = biological target: γ2δ3 TCR-hFc mutant S8 (K79L, E18Q, H88F in the Vδ3 chain) (human) (UniProt B7Z8K6); experiment: as above
[33] = biological target: recombinant human soluble γ2 δ3TCR-FC (wild type) (human) (UniProt B7Z8K6); experiment: Octet, γ2δ3TCR-hFc captured on anti-human Fc biosensor; row antibody δ3-08 taken as first (saturating), column antibody as second; 5 µg/mL each; self pair

Molecule | EC50 [6] [nM] | EC50 [7] [nM] | EC50 [8] [nM] | EC50 [9] [nM] | EC50 [10] [nM] | EC50 [11] [nM] | EC50 [12] [nM] | EC50 [13] [nM] | EC50 [14] [nM] | EC50 [15] [nM] | EC50 [16] [nM] | EC50 [17] [nM] | paired-competition value (Octet signal of the second antibody per paragraph 256) [18] | paired-competition value (Octet signal of the second antibody per paragraph 256) [19] | paired-competition value (Octet signal of the second antibody per paragraph 256) [20] | paired-competition value (Octet signal of the second antibody per paragraph 256) [21] | paired-competition value (Octet signal of the second antibody per paragraph 256) [26] | further results
aRitxmab-FITC (antibody) | – | – | – | – | – | – | – | – | – | – | – | – | – | – | – | – | – | percent of cells in the CAR+ gate [1]: 83.1%; percent of cells in the CAR+ gate [2]: 70.7%; percent of cells in the CAR+ gate [3]: 73.5%
B1 | 0.04 | 0.04 | 0.04 | 0.06 | 0.04 | 0.04 | 0.04 | 0.05 | 117 | 112 | 137 | 95.8 | 0.29 | 0.48 | 0.12 | 0.07 | – | share of non-Vδ1/non-Vδ2 γδ T cells in the culture on Day 21, Donor 1 [4]: < 41%; % of non-Vδ1/non-Vδ2 cells stained positive [5]: > 95%; paired-competition value (Octet signal of the second antibody per paragraph 256) [22]: 0.06; percent of cells in the Vd3+ gate [23]: 95%; percent of cells in the Vd3+ gate [24]: 95.5%
B2 | 0.05 | 0.07 | 0.17 | 0.05 | 0.08 | 0.13 | 0.15 | – | 449 | 199 | 106 | 258 | 0.21 | 0.35 | – | 0.03 | 0.04 | EC50 [25]: 49.3 nM; paired-competition value (Octet signal of the second antibody per paragraph 256) [27]: 0.04
B3 | 0.03 | 0.02 | 0.03 | 0.02 | 0.02 | 0.02 | 0.04 | 0.05 | 336 | 136 | 508 | 3370 | 0.22 | 0.37 | 0.06 | – | 0.03 | paired-competition value (Octet signal of the second antibody per paragraph 256) [28]: 0.03
B4 | 0.06 | 0.08 | 0.07 | 0.06 | 0.05 | 0.06 | 0.07 | 0.07 | – | – | – | – | – | 0.24 | – | 0.04 | 0.04 | EC50 [29]: 2.5 nM; EC50 [30]: 0.03 nM; EC50 [31]: 0.05 nM; EC50 [32]: 0.04 nM; paired-competition value (Octet signal of the second antibody per paragraph 256) [33]: 0.16
